Laboratory results as given in article PMC10157173.

Legend:
[1] = molecular target: Tag-free recombinant human EGFR (Homo sapiens (Human).) (UniProt P00533); assay: ELISA; sandwich ELISA for bispecificity: tag-free EGFR, HER2 or HER3 coated at 1000 ng/ml in PBS; dilutions of BiXAb™ in PBS, 37°C, 1 h; then 1000 ng/ml of the His-tagged second receptor, 37°C, 1 h; detected with peroxidase-conjugated anti-His tag antibody
[2] = molecular target: Tag-free recombinant human HER3 ECD (Homo sapiens (Human).) (UniProt P21860); assay: as above

Substance: BiXAb™ 3Patri-1Matu-Fc (bispecific antibody)
- EC50 [1]: 170 nM
- EC50 [2]: 0.55 nM
